What was measured:
[1] = biological target: wt-FGFR1 kinase domain (aa 458-765) (human) (UniProt P11362)
[2] = biological target: FGFR1-RE kinase domain (R577E mutant, aa 458-765) (human) (UniProt P11362)

| in vitro trans phosphorylation of purified kinase domains with ATP and Mg2+, native gel [1] | in vitro trans phosphorylation of purified kinase domains with ATP and Mg2+, native gel [2] | Substance |
| --- | --- | --- |
| < 10 min | – | wt-FGFR1 kinase domain (aa 458-765) (from UniProt P11362) (enzyme) |
| – | < 30 min | FGFR1-RE kinase domain (R577E mutant, aa 458-765) (from UniProt P11362) (enzyme) |

From patent US20120328599A1
